B1: 0×1 linker variant of Construct 11 (bispecific antibody)
heavy: EVQLVETGGGLVKPGGSLRLSCSASRFSFRDYYMTWIRQAPGKGPEWVSHISGSGSTIYYADSVRGRFTISRDNAKSSLYLQMDSLQADDTAVYYCARGGRATSYYWVHWGPGTLVTVSSASTKGPSVFPLAPSSKSTSGGTAALGCLVKDYFPEPVTVSWNSGALTSGVHTFPAVLQSSGLYSLSSVVTVPSSSLGTQTYICNVNHKPSNTKVDKKVEPKSCDKTHTCPPCPAPPVAGPDVFLFPPKPKDTLMISRTPEVTCVVVDVSHEDPEVKFNWYVDGVEVHNAKTKPREEQYNSTYRVVSVLTVLHQDWLNGKEYKCKVSNAALPAPIAKTISKAKGQPREPQVYTLPPSRDELTKNQVSLTCLVKGFYPSDIAVEWESNGQPENNYKTTPPVLDSDGSFFLYSKLTVDKSRWQQGNVFSCSVMHEALHNRFTQKSLSLSPGKMLPAPKNLVVSRVTEDSARLSWTAPDAAFDSFHIEYAEPWVWGEAIVLTVPGSERSYDLTGLKPGTEYVVFIGGVKGGHNSTPLSAIFTTGGGGSMLPAPKNLVVSRVTEDSARLSWTAPDAAFDSFWITYEEKFYRGEAIVLTVPGSERSYDLTGLKPGTEYKVWIVGVKGGQGSWPLSAIFTT
light: EIVLTQSPATLSLSPGERATLSCRASQSVSGYLGWYQQKPGQAPRLLIYGASSRATGIPDRFSGSGSGTDFTLTISRLEPEDFAVYYCQQYGSSPLTFGGGTKLEIKRTVAAPSVFIFPPSDEQLKSGTASVVCLLNNFYPREAKVQWKVDNALQSGNSQESVTEQDSKDSTYSLSSTLTLSKADYEKHKVYACEVTHQGLSSPVTKSFNRGEC
B2: 0×3 linker variant of Construct 11 (bispecific antibody)
heavy: EVQLVETGGGLVKPGGSLRLSCSASRFSFRDYYMTWIRQAPGKGPEWVSHISGSGSTIYYADSVRGRFTISRDNAKSSLYLQMDSLQADDTAVYYCARGGRATSYYWVHWGPGTLVTVSSASTKGPSVFPLAPSSKSTSGGTAALGCLVKDYFPEPVTVSWNSGALTSGVHTFPAVLQSSGLYSLSSVVTVPSSSLGTQTYICNVNHKPSNTKVDKKVEPKSCDKTHTCPPCPAPPVAGPDVFLFPPKPKDTLMISRTPEVTCVVVDVSHEDPEVKFNWYVDGVEVHNAKTKPREEQYNSTYRVVSVLTVLHQDWLNGKEYKCKVSNAALPAPIAKTISKAKGQPREPQVYTLPPSRDELTKNQVSLTCLVKGFYPSDIAVEWESNGQPENNYKTTPPVLDSDGSFFLYSKLTVDKSRWQQGNVFSCSVMHEALHNRFTQKSLSLSPGKMLPAPKNLVVSRVTEDSARLSWTAPDAAFDSFHIEYAEPWVWGEAIVLTVPGSERSYDLTGLKPGTEYVVFIGGVKGGHNSTPLSAIFTTGGGGSGGGGSGGGGSMLPAPKNLVVSRVTEDSARLSWTAPDAAFDSFWITYEEKFYRGEAIVLTVPGSERSYDLTGLKPGTEYKVWIVGVKGGQGSWPLSAIFTT
light: B1 light
B3: 1×4 linker variant of Construct 11 (bispecific antibody)
heavy: EVQLVETGGGLVKPGGSLRLSCSASRFSFRDYYMTWIRQAPGKGPEWVSHISGSGSTIYYADSVRGRFTISRDNAKSSLYLQMDSLQADDTAVYYCARGGRATSYYWVHWGPGTLVTVSSASTKGPSVFPLAPSSKSTSGGTAALGCLVKDYFPEPVTVSWNSGALTSGVHTFPAVLQSSGLYSLSSVVTVPSSSLGTQTYICNVNHKPSNTKVDKKVEPKSCDKTHTCPPCPAPPVAGPDVFLFPPKPKDTLMISRTPEVTCVVVDVSHEDPEVKFNWYVDGVEVHNAKTKPREEQYNSTYRVVSVLTVLHQDWLNGKEYKCKVSNAALPAPIAKTISKAKGQPREPQVYTLPPSRDELTKNQVSLTCLVKGFYPSDIAVEWESNGQPENNYKTTPPVLDSDGSFFLYSKLTVDKSRWQQGNVFSCSVMHEALHNRFTQKSLSLSPGKGGGGSMLPAPKNLVVSRVTEDSARLSWTAPDAAFDSFHIEYAEPWVWGEAIVLTVPGSERSYDLTGLKPGTEYVVFIGGVKGGHNSTPLSAIFTTGGGGSGGGGSGGGGSGGGGSMLPAPKNLVVSRVTEDSARLSWTAPDAAFDSFWITYEEKFYRGEAIVLTVPGSERSYDLTGLKPGTEYKVWIVGVKGGQGSWPLSAIFTT
light: B1 light
B4: 0×2 linker variant of Construct 11 (bispecific antibody)
heavy: EVQLVETGGGLVKPGGSLRLSCSASRFSFRDYYMTWIRQAPGKGPEWVSHISGSGSTIYYADSVRGRFTISRDNAKSSLYLQMDSLQADDTAVYYCARGGRATSYYWVHWGPGTLVTVSSASTKGPSVFPLAPSSKSTSGGTAALGCLVKDYFPEPVTVSWNSGALTSGVHTFPAVLQSSGLYSLSSVVTVPSSSLGTQTYICNVNHKPSNTKVDKKVEPKSCDKTHTCPPCPAPPVAGPDVFLFPPKPKDTLMISRTPEVTCVVVDVSHEDPEVKFNWYVDGVEVHNAKTKPREEQYNSTYRVVSVLTVLHQDWLNGKEYKCKVSNAALPAPIAKTISKAKGQPREPQVYTLPPSRDELTKNQVSLTCLVKGFYPSDIAVEWESNGQPENNYKTTPPVLDSDGSFFLYSKLTVDKSRWQQGNVFSCSVMHEALHNRFTQKSLSLSPGKMLPAPKNLVVSRVTEDSARLSWTAPDAAFDSFHIEYAEPWVWGEAIVLTVPGSERSYDLTGLKPGTEYVVFIGGVKGGHNSTPLSAIFTTGGGGSGGGGSMLPAPKNLVVSRVTEDSARLSWTAPDAAFDSFWITYEEKFYRGEAIVLTVPGSERSYDLTGLKPGTEYKVWIVGVKGGQGSWPLSAIFTT
light: B1 light
B5: 3×2 linker variant of Construct 11 (bispecific antibody)
heavy: EVQLVETGGGLVKPGGSLRLSCSASRFSFRDYYMTWIRQAPGKGPEWVSHISGSGSTIYYADSVRGRFTISRDNAKSSLYLQMDSLQADDTAVYYCARGGRATSYYWVHWGPGTLVTVSSASTKGPSVFPLAPSSKSTSGGTAALGCLVKDYFPEPVTVSWNSGALTSGVHTFPAVLQSSGLYSLSSVVTVPSSSLGTQTYICNVNHKPSNTKVDKKVEPKSCDKTHTCPPCPAPPVAGPDVFLFPPKPKDTLMISRTPEVTCVVVDVSHEDPEVKFNWYVDGVEVHNAKTKPREEQYNSTYRVVSVLTVLHQDWLNGKEYKCKVSNAALPAPIAKTISKAKGQPREPQVYTLPPSRDELTKNQVSLTCLVKGFYPSDIAVEWESNGQPENNYKTTPPVLDSDGSFFLYSKLTVDKSRWQQGNVFSCSVMHEALHNRFTQKSLSLSPGKGGGGSGGGGSGGGGSMLPAPKNLVVSRVTEDSARLSWTAPDAAFDSFHIEYAEPWVWGEAIVLTVPGSERSYDLTGLKPGTEYVVFIGGVKGGHNSTPLSAIFTTGGGGSGGGGSMLPAPKNLVVSRVTEDSARLSWTAPDAAFDSFWITYEEKFYRGEAIVLTVPGSERSYDLTGLKPGTEYKVWIVGVKGGQGSWPLSAIFTT
light: B1 light
B6: 0×4 linker variant of Construct 11 (bispecific antibody)
heavy: EVQLVETGGGLVKPGGSLRLSCSASRFSFRDYYMTWIRQAPGKGPEWVSHISGSGSTIYYADSVRGRFTISRDNAKSSLYLQMDSLQADDTAVYYCARGGRATSYYWVHWGPGTLVTVSSASTKGPSVFPLAPSSKSTSGGTAALGCLVKDYFPEPVTVSWNSGALTSGVHTFPAVLQSSGLYSLSSVVTVPSSSLGTQTYICNVNHKPSNTKVDKKVEPKSCDKTHTCPPCPAPPVAGPDVFLFPPKPKDTLMISRTPEVTCVVVDVSHEDPEVKFNWYVDGVEVHNAKTKPREEQYNSTYRVVSVLTVLHQDWLNGKEYKCKVSNAALPAPIAKTISKAKGQPREPQVYTLPPSRDELTKNQVSLTCLVKGFYPSDIAVEWESNGQPENNYKTTPPVLDSDGSFFLYSKLTVDKSRWQQGNVFSCSVMHEALHNRFTQKSLSLSPGKMLPAPKNLVVSRVTEDSARLSWTAPDAAFDSFHIEYAEPWVWGEAIVLTVPGSERSYDLTGLKPGTEYVVFIGGVKGGHNSTPLSAIFTTGGGGSGGGGSGGGGSGGGGSMLPAPKNLVVSRVTEDSARLSWTAPDAAFDSFWITYEEKFYRGEAIVLTVPGSERSYDLTGLKPGTEYKVWIVGVKGGQGSWPLSAIFTT
light: B1 light

What follows are binders tested against T1, LukAB toxoid variant (LukA E323A), recombinant polyhistidine-tagged (S. aureus, UniProt Q2FFA2 28-351; P21224 30-338) (assay: ELISA, biotinylated toxin on streptavidin plate).
T1 sequence 1: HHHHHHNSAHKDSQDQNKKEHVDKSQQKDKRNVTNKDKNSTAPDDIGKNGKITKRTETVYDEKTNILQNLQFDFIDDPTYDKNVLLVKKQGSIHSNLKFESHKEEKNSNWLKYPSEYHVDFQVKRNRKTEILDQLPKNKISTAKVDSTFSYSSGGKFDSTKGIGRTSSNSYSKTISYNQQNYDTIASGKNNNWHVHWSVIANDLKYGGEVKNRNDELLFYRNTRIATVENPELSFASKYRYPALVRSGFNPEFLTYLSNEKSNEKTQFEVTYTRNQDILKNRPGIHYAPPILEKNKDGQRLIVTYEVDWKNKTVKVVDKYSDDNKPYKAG
T1 sequence 2: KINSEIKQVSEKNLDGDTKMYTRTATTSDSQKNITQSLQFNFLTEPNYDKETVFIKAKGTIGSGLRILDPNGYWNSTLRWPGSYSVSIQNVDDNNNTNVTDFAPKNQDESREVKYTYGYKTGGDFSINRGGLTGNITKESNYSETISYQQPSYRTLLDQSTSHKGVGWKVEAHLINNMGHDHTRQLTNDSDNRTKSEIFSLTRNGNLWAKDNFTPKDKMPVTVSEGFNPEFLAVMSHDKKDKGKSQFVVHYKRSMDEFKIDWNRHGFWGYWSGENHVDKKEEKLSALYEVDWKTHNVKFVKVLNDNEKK

Row | Binder | binding result
1 | B1 | binds
2 | B2 | binds
3 | B3 | binds
4 | B4 | binds
5 | B5 | binds
6 | B6 | binds

From patent publication US20190127444A1 (NEW YORK UNIVERSITY, published 2019)
